From patent EP4537907A1 (Enthera S.r.l., dated 2025)

T1: recombinant human CD248 (internally produced) (human, UniProt Q9HCU0 18-687, limits assumed, biotinylated in the inhibition ELISA)
T1 construct: Soluble recombinant protein; also called human recombinant CD248; biotinylated CD248 (internally produced)
T1 sequence (looked up): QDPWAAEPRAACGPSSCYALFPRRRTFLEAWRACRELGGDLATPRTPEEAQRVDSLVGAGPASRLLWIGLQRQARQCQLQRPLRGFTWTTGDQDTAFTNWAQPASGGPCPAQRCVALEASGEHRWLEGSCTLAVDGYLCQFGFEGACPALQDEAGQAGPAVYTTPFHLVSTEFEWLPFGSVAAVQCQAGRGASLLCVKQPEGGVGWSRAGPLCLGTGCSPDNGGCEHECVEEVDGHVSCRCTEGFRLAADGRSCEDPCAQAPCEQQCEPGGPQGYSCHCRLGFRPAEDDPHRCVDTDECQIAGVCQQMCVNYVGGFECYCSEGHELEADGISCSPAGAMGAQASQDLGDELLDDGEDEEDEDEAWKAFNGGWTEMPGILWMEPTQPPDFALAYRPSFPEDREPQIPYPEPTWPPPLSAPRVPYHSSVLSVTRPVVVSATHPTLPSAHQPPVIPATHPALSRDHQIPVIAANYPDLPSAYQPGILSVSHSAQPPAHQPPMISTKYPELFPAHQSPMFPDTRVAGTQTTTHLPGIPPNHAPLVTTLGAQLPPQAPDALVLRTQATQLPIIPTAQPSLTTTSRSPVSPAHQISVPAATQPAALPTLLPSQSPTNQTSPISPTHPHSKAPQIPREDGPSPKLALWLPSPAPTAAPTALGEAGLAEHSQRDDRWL

T2: recombinant mouse CD248 (internally produced) (mouse, UniProt Q91V98 18-695, limits assumed)
T2 construct: also called murine recombinant CD248; Murine CD248
T2 sequence (looked up): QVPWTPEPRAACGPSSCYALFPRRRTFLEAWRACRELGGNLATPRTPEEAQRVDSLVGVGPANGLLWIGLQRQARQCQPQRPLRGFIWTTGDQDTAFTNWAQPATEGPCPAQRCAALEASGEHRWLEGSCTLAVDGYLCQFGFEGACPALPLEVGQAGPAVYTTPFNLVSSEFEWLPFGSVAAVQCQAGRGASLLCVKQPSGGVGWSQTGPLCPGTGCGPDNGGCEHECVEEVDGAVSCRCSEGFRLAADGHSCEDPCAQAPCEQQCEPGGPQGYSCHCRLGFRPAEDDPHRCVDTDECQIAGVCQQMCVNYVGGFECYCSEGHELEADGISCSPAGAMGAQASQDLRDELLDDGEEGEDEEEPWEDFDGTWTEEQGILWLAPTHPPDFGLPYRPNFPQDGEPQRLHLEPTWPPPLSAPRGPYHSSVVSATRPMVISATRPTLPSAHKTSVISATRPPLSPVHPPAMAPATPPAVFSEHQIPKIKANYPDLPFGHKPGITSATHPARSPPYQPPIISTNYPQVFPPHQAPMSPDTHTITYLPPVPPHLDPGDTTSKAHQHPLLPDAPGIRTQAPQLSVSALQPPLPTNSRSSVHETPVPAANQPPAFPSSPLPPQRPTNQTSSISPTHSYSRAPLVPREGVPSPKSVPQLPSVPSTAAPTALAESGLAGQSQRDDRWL

T3: mouse CD248 expressed on the cell membrane of transiently transfected HEK 293 cells (mouse, UniProt Q91V98 18-765)
T3 construct: whole, on cells; also called mouse CD248+ cells
T3 sequence (looked up): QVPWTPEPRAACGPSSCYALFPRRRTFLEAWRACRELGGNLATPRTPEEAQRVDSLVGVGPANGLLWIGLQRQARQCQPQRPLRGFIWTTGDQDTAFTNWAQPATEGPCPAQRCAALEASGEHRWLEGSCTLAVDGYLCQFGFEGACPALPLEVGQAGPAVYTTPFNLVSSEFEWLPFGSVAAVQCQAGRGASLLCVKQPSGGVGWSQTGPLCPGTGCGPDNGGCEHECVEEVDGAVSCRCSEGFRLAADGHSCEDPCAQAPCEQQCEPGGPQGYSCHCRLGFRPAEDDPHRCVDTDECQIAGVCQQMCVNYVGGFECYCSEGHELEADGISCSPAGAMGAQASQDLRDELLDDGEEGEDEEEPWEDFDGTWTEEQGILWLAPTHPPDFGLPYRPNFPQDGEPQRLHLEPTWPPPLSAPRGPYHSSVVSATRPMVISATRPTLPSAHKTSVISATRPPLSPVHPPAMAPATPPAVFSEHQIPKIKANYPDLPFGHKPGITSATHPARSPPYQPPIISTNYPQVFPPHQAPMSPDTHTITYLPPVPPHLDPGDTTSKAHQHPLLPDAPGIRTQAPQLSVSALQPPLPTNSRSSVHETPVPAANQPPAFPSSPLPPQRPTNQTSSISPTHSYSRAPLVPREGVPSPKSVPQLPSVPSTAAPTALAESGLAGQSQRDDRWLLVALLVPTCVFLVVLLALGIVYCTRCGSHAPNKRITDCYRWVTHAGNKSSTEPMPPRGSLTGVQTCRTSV

T4: human CD248 expressed on the cell membrane of transiently transfected HEK 293 cells (human, UniProt Q9HCU0 18-757)
T4 construct: whole, on cells; also called human CD248+ cells; CD248-positive cells
T4 sequence (looked up): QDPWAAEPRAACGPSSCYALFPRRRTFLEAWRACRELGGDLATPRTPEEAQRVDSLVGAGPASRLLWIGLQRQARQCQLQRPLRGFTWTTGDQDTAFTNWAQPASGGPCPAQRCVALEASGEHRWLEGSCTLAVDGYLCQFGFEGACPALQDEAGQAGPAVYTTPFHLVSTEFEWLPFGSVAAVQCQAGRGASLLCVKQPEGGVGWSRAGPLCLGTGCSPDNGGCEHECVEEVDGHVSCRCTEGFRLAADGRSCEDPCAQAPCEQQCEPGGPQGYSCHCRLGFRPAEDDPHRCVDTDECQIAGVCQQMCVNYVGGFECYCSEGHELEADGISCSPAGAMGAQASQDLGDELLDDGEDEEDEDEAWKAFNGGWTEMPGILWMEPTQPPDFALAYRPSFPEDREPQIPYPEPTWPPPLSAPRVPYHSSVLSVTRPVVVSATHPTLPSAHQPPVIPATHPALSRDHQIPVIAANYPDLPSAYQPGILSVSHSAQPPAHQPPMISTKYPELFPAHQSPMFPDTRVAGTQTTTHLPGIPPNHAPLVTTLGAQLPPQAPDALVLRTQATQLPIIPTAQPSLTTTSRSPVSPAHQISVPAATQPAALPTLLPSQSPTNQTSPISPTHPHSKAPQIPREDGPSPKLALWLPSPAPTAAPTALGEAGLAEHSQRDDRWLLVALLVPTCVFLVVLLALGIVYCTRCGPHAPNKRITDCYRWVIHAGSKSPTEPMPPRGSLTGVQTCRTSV

B1: YU1025-B07 (antibody, V domains shown)
VH: QVQLVQSGGGVVQPGRSLRLSCAASGFTFSSYAMHWVRQAPGKGLEWVAVISYDGSNKYYADSVKGRFTISRDNSKNTLYLQMNSLRAEDTAVYYCARTKARWFGVTTYMDVWGKGTLVTVSS
VL: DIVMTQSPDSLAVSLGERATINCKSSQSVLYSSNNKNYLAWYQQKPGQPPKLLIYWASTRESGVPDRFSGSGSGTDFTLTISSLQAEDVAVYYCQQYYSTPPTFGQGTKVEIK
notes: Tested as full human IgG4 carrying the S228P/L235E mutations
B2: YU1023-B03 (antibody, human IgG4, V domains shown)
VH: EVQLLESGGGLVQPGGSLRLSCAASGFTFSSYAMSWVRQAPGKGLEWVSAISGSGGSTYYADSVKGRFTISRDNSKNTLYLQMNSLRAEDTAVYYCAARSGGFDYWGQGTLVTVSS
VL: DVVMTQSPLSLPVTPGEPASISCRSSQSLLHSNGYNYLDWYVQKPGQSPQRLIYFTSNRASGVPDRFSGSGSGTDFTLKISRVEAEDVGVYYCMQSIQLPRTFGQGTKVEIK
notes: as for B1
B3: YU1023-E03 (antibody, human IgG4, V domains shown)
VH: EVQLLESGGGVVQPGRSLRLSCAASGFTFSSYAMHWVRQAPGKGLEWVAVISYDGSNKYYADSVKGRFTISRDNSKNTLYLQMNSLRAEDTAVYYCARSIAAAGTRWFDPWGQGTLVTVSS
VL: DIQLTQSPSSVSASVGDRVTITCRASQGISSWLAWYQQKPGKAPKLLIYAASSLQSGVPSRFSGSGSGTDFTLTISSLQPEDFATYYCQQANSFPLTFGGGTKLEIK
notes: Tested as full human IgG4 carrying the S228P/L235E mutations; It was scarcely produced (<0.1 mg/ml)
B4: YU1024-G01 (antibody, human IgG4, V domains shown)
VH: QVQLQESGGGVVQPGRSLRLSCAASGFTFSSYAMHWVRQAPGKGLEWVAVISYDGSNKYYADSVKGRFTISRDNSKNTLYLQMNSLRAEDTAVYYCARNNHPRGERLPQYWGQGTLVTVSS
VL: DIQLTQSPSSLSASVGDRVTITCRASQSVGSYLNWYQHKPGKAPKLLIYVASRLQSGVPSRFSGSGSGTDFTLTINSLQPEDFATYYCQQSYSTPLTFGGGTKVEIK
notes: as for B1
B5: YU1023-A02 (antibody, human IgG4, V domains shown)
VH: QVQLVESGPGLVKPSQTLSLTCTVSGGSISSGGYYWSWIRQHPGKGLEWIGYIYYSGSTYYNPSLKSRVTISVDTSKNQFSLKLSSVTAADTAVYYCARVRGRSATYFDYWGQGTTVTVSS
VL: QSVLTQPPSVSGAPGQRVTISCTGSSSNIGAGYDVRWYQQLPGTAPKLLIYANNNRPSGVPDRFSGSKSGTSASLAITGLQTEDEADYYCQSYDISLSGSLFGGGTKLTVL
notes: Tested as full human IgG4 carrying the S228P/L235E mutations; also called YU1023-A02 mAb

Key:
[1] = biological target: T1, recombinant human CD248 (internally …); experiment: BLI (Octet platform, BLItz System), mAb captured via Fc on AHC biosensor, soluble antigen at different concentrations
[2] = biological target: T2, recombinant mouse CD248 (internally …); experiment: as above
[3] = biological target: T3, mouse CD248 expressed on the cell …; experiment: flow cytometry on transiently transfected HEK 293 cells, secondary anti-human IgG, antibody concentration series
[4] = biological target: T4, human CD248 expressed on the cell …; experiment: as above
[5] = biological target: T5, irrelevant antigen expressed on HEK 293 cells after transient transfection (human); experiment: flow cytometry on HEK 293 cells transiently transfected with an irrelevant antigen (negative control), secondary anti-human IgG
T5 construct: Negative control antigen; also called irrelevant human antigen; irrelevant Ag+ cells

[6] = biological target: T1, recombinant human CD248 (internally …); experiment: competition ELISA: purified IgG4 (S228P/L235E) with biotinylated human CD248, added to immobilised human IGFBP5, Streptavidin-HRP

Binder	Kd [1] [nM]	Kd [2] [nM]	EC50 [3] [µg/mL]	EC50 [4] [µg/mL]	EC50 [5] [µg/mL]	IC50 [6] [µg/mL]
B1	11.7	14.2	0.0216	0.0236	1.68	19.2
B2	18.6	7.99	0.0184	0.0401	3.66	47.6
B3	–	–	0.891	1.49	3.84	17.4
B4	3.78	3.91	~0.00985	0.0121	2.11	4.7
B5	9.94	10.1	0.0388	0.0523	3.16	20.8
